# Test results taken from the supplement of paper PMC9732359.
# ± gives the uncertainty stated by the source.
# Experiment: protein stability index of a GFP-peptide fusion (yeast GPS) (PSI 1-4); higher = more stable; sorted into four equal gates, so the index is relative within each strain
# Summary of the method: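 Mid-log yeast cultures in leucine-free medium, carrying a pooled plasmid library, were sorted into four equal gates by their GFP/Cherry fluorescence ratio. Each plasmid expressed Cherry along with GFP fused upstream of a tiled 17-residue yeast protein peptide. Plasmids recovered from each gate were PCR-amplified and Illumina-sequenced, with reads assigned to strains by barcodes. The protein stability index was obtained by summing each gate's read frequency weighted by its gate number.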
Sequence,protein stability index (doa10∆),protein stability index (pdr5∆),protein stability index (san1∆),protein stability index (ubr1∆)
GHVGSVQISNIPDIGDL [PRP8],3.11 ± 0.067,2.95 ± 0.053,2.79 ± 0.058,3.03 ± 0.046
PKVPVSAAATPSLNKTI [GAL11],2.5 ± 0.039,2.77 ± 0.033,2.67 ± 0.035,2.63 ± 0.036
LLPTNNGQPLNQNFSLT [GRR1],3.06 ± 0.058,2.95 ± 0.045,2.81 ± 0.045,3.02 ± 0.047
EDEEDDNISSFHSAVEN [YCG1],3.12 ± 0.069,3.2 ± 0.095,3.26 ± 0.052,2.6 ± 0.063
FGSGTQNNNTLGGGGLF [YGR119C/NUP57],3.37 ± 0.083,2.94 ± 0.089,3.07 ± 0.061,3.11 ± 0.054
SLYPPPPPYVKFFTQSN [MED7],1.97 ± 0.043,2.17 ± 0.048,2.16 ± 0.072,2.35 ± 0.031
NPRRLEIKDGRSLFLRN [YMR153W/NUP53],3.27 ± 0.1,2.9 ± 0.11,3.2 ± 0.087,3.22 ± 0.085
IALLTLKESVEGEFNGD [PRE8],2.77 ± 0.21,2.77 ± 0.17,2.64 ± 0.15,2.75 ± 0.11
IYSPEGLRLDGRRWNEL [SKI6],1.42 ± 0.16,1.77 ± 0.19,,
SDIPVSENVFEGLTYKY [SSN3],1.82 ± 0.078,1.89 ± 0.1,,1.98 ± 0.042
RFPETMDETQTRAKIGG [RPO21],3.17 ± 0.26,,2.69 ± 0.24,3.42 ± 0.13
RNVEQKLNELDELILEA [NNF1],3.3 ± 0.062,3.29 ± 0.059,3.22 ± 0.039,3.4 ± 0.046
NKITNQGVTCLHLAVGK [NAS6],1.4 ± 0.2,1.83 ± 0.057,,2.01 ± 0.075
LNELKAIKDKLEQDLHF [YIL149C/MLP2],3 ± 0.07,3.13 ± 0.069,2.82 ± 0.07,3.24 ± 0.063
DVAFADGGKTLRACAAN [YMR129W/POM152],1.54 ± 0.18,2.6 ± 0.19,,2.36 ± 0.1
VHKLRHYLVNLTSPAFG [GRR1],1.24 ± 0.04,1.38 ± 0.035,1.34 ± 0.077,1.21 ± 0.031
RSVRIPWYNNPVSCIIQ [PRP8],2.33 ± 0.1,2.19 ± 0.068,2.02 ± 0.16,2.55 ± 0.06
NLATWYHSAGGRDKHAL [SSN3],3.49 ± 0.17,3.54 ± 0.15,3.16 ± 0.11,3.42 ± 0.08
FEQPSQREEAKKVVKKA [RPL27A],2.95 ± 0.15,3.28 ± 0.13,3.13 ± 0.15,3.05 ± 0.14
EGRSFTKAIEDAKKEMK [YLR335W/NUP2],2.87 ± 0.066,2.7 ± 0.062,2.83 ± 0.06,2.59 ± 0.081
LEKERSILDDIKLSLKD [SMC4],,2.85 ± 0.14,2.43 ± 0.17,2.91 ± 0.11
KVGEDIAKATKEFKGIK [RPL12A],3.07 ± 0.16,3.22 ± 0.14,3.25 ± 0.15,3.17 ± 0.15
DNSFNELTDNMSDFVPI [MCD1],2.95 ± 0.082,3 ± 0.089,2.92 ± 0.052,3.23 ± 0.064
GSGQPDNDTVVTNDDKS [SRB8],3.08 ± 0.23,3.29 ± 0.17,2.52 ± 0.15,
RPFEGLFVISTEISPMA [RRP45],2.67 ± 0.048,2.87 ± 0.049,3.04 ± 0.061,2.86 ± 0.037
PKMQWSLQDNSAAINNE [RPN4],3.15 ± 0.063,3.2 ± 0.053,2.96 ± 0.048,3.15 ± 0.041
VGKQIVNIPSFMVRLDS [RPS9A],2.59 ± 0.099,2.69 ± 0.12,2.42 ± 0.18,2.62 ± 0.096

Sequence,protein stability index (doa10∆),protein stability index (pdr5∆),protein stability index (san1∆),protein stability index (ubr1∆)
ENIQEGTSLTIQHIAAA [CDC53],2.52 ± 0.091,3.11 ± 0.086,2.42 ± 0.099,2.91 ± 0.077
SLDEILLPANLLSLNSV [SRP68],3.13 ± 0.058,3.15 ± 0.058,3.14 ± 0.05,3.08 ± 0.031
PLRGALATYGLTIDDLG [FAS2],2.38 ± 0.087,2.51 ± 0.1,2.19 ± 0.1,2.72 ± 0.079
NLLSKRNQEKKMEKKKS [SNM1],3.09 ± 0.16,3.38 ± 0.28,,
EKVTIAPLVLLSALDHY [RPN8],1.62 ± 0.033,1.63 ± 0.031,1.42 ± 0.06,1.48 ± 0.029
MPDEFNTLYTAIITDDL [SRP72],2.39 ± 0.047,2.5 ± 0.043,2.6 ± 0.035,2.64 ± 0.043
WVQLVQIIVTDGKLEPS [YJL039C/NUP192],1.27 ± 0.065,1.32 ± 0.085,1.19 ± 0.098,1.27 ± 0.07
IHEIDERLAKVNEMNDQ [NNF1],1.37 ± 0.089,2.51 ± 0.14,1.63 ± 0.12,1.96 ± 0.061
KLLNDLALENGEITKTE [NUT1],3.13 ± 0.15,3.09 ± 0.22,2.78 ± 0.2,3.18 ± 0.086
VCAKLFGNIQKVVNFWL [RPO21],2.03 ± 0.098,1.93 ± 0.07,1.95 ± 0.11,1.78 ± 0.074
IKKFAKLHMGTDDVRLA [RPL31A],1.7 ± 0.037,1.32 ± 0.042,1.24 ± 0.064,1.58 ± 0.037
KRKYLDIPIDEMTLPTS [SSN2],3.1 ± 0.24,2.81 ± 0.15,2.77 ± 0.19,3.21 ± 0.23
VKGKNCVVLGCERRSTL [PRE6],,,2.84 ± 0.23,
DKKSCSVDDVLSALDHI [DPB4],3.29 ± 0.086,3.23 ± 0.089,3.31 ± 0.054,3.22 ± 0.044
VLIDLLNWFRTTNMNVN [RGR1],2.9 ± 0.11,1.66 ± 0.068,3.19 ± 0.096,1.92 ± 0.093
KLDIISDPESERPAIEF [RPN14],2.94 ± 0.045,3.05 ± 0.05,3.03 ± 0.04,3.18 ± 0.039
LVRRLSDIKQGYTQHGG [PRE9],2.5 ± 0.14,2.06 ± 0.25,2.48 ± 0.09,
LNLSLHKLDLAKRNLDA [SMC2],2.28 ± 0.046,2.78 ± 0.043,2.62 ± 0.047,2.17 ± 0.029
YLNDLMITKRILEVGAL [RPN12],1.29 ± 0.16,,,
RRKKILNEIELDNLKLK [GRR1],3.04 ± 0.11,3.04 ± 0.086,2.76 ± 0.093,2.87 ± 0.068
IAEGKSKQDASPKPYAV [RPL8B],3.02 ± 0.077,3.38 ± 0.063,3.12 ± 0.06,3.23 ± 0.049
PKDFSPNFTGIDKLMLS [SSN2],1.42 ± 0.17,1.38 ± 0.15,1.85 ± 0.27,1.26 ± 0.11
MKLVNFLKKLRNEQVTI [SMD1],1.87 ± 0.17,1.93 ± 0.095,2.04 ± 0.14,2.5 ± 0.11
RYSMSEQFPFYLHDNAS [IRR1],3.02 ± 0.09,3.01 ± 0.06,2.97 ± 0.063,3.03 ± 0.042
LQKEFLPHITQLEGFES [RPB2],1.9 ± 0.047,1.84 ± 0.041,1.69 ± 0.053,1.55 ± 0.025
KPMTAYARADTHFLLNI [RRP6],2.26 ± 0.05,2.17 ± 0.047,2.34 ± 0.06,1.87 ± 0.046
EHKQLVAEIVQNVISLG [RPC82],2.2 ± 0.067,1.46 ± 0.13,2.16 ± 0.25,1.8 ± 0.1
